Measurements taken from patent publication US20080230399A1, “Fructosylamine Oxidase” (priority 2003, published 2008).

Assay: Determination of enzymatic activity (POD/Phenol/4A.A. method)
Format: biochemical
Details: substrate 10 mM, PPb pH 7.0 50 mM, absorbance at 505 nm; recombinant FAO produced by Escherichia coli compared with enzyme produced by wild-type Pichia sp. N1-1
Procedure: Reactivity of the purified enzyme prepared in Example 5 to fructosyl valine, N′-fructosyl lysine, fructosyl glycine, fructosyl alanine, fructosyl leucine, fructosyl phenylalanine, glucose and sarcosine was examined. The measurement was conducted using a solution containing a substrate (10 mM), PPb (pH 7.0, 50 mM), phenol (1.5 mM), 4-aminoantipyrine (1.5 mM) and peroxidase (2 U/ml), and changes in the absorbance at 505 nm were measured according to the POD/Phenol/4A.A. method. […] N1-1 strain of wild type.

B1: recombinant FAO: Fructosylamine oxidase derived from Pichia sp. N1-1 (SEQ ID NO: 1), recombinantly produced in Escherichia coli DH5α/pTN1 and purified (protein, listed as Pichia sp.)
chain: MESIIIVGAGTFGLSTALQLARDGYKNIKCFDKFPVPSEIAAGNDSNKIFHYDYVAPLAKPNSKERLSLEALHLWKTDPVYKPYYHPVGFILAASSDAPLLHDKEYYEELQKNGLRNYRYISTPEEFREYLPILKGPLPNWRGYVLDGDNGWLHARDSLKSAYEECKRLGVEFVFGDDGEIVELLNENGKLTGIRARSGAIFSAQKYVLSSGANAVTLLNFQRQLEGKCFTLAHFKVTDEEAKAFKSLPVLFNAEKGFFFEADENNEIKICNEYPGFTHTNESGESIPLYRMEIPLESALEIRQYLKETMPQFADRPFTKTRICWCTDSPDMQLILCTHPEYTNLIVASGDSGNSFKIMPIIGKYVSKVVTKGDKGLDPEDKECWKWRPETWDKRGQVRWGGRYRVADLNEIEEWVSVENPTPHKLE
- activity and substrate specificity of the enzyme: higher activity
